In article PMC3420021, “Crystallographic Analysis of Polypyrimidine Tract-Binding Protein-Raver1 Interactions Involved in Regulation of Alternative Splicing” (Structure(London, England:1993), 2011):
One block for each binder: values may come before it.

Molecular target: T1, PTB RRM2 (residues 156-285 of PTB) as it stands in the PRI-RRM2 chimeras (UniProt P26599 156-285)
T1 construct: the linker residues had no density; source: E. coli BL21 (DE3), purified as part of the PRI-RRM2 chimeras
Assay: crystal structure; PRI sequence fused as N-terminal extension to PTB 156-285 on one chain; sitting drop, 0.2 M NaI, 0.1 M Bis-Trispropane pH 6.5, 20% PEG 3350; two complexes in the asymmetric unit
Details: both partners purified

T1 sequence (P26599 156-285, change not shown): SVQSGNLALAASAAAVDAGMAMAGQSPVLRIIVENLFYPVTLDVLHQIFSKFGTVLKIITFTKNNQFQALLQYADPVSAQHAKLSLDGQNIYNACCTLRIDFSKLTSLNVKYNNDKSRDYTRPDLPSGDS

binding result: binds
B1: Raver1 PRI4 12-residue sequence as it stands in the PRI4-RRM2 chimera (peptide)
peptide: SSEGLLGLGPGP
notes: core GLLGLGP is numbered 1-7; In the crystal it was joined on one chain with m3 (chimera m5); source: E. coli BL21 (DE3), purified as part of the PRI4-RRM2 chimera

binding result: binds
B2: Raver1 PRI3 12-residue sequence as it stands in the PRI3-RRM2 chimera (peptide)
peptide: PGVSLLGAPPKD
notes: core SLLGAPP is numbered 1-7; In the crystal it was joined on one chain with m3 (chimera m1); source: E. coli BL21 (DE3), purified as part of the PRI3-RRM2 chimera
